Molecular target: the molecule itself

B1: Nsp1•Nup49•Nup57 channel nup hetero-trimer (CNT) (complex, Chaetomium thermophilum)
chain 1: MDEIITRWATDLAKYQKEFKEQAAKVMEWDRLLVENGEKIQKLYTSTYEAERASNEIERQLSNVESQQEELTAWLDRYERELDELYAKQMGSAAGEQAAGPDQERERTYKLAEKLTDQLDEMGKDLAKMIKEINDMSNTLSKGSKPDDPLTQIVRVLNGHLAQLQWIDTNAAALQAKVAAAQKAAGSMGANVPGTETDAAESFYRSYR
chain 2: EALQQEIAKIDEEIQKCIRDKEAVDAFLPAHGEQLAAIPTDVNFVTRKSEGAHNALSSDILAIDQLRELVKQDADNARLSFKAIDNLKLPMQYHQAGLWSKQMGGAGTAGASGASADADGQSNADLISYFSKTADEMEEMMKKFEKTITEIEAHLTGVEAHAMAMQNVAAQSRNAAQGGVDERVYELAAVLREFEESILKVAGVVGGVKEGVTELQLRDFMGHGS
chain 3: YQKPIPEQIKLIVDKWNPNHPNCAFKTYLYNKVDEHTVPLYGPGPNEDPKEWEEALQRKPAPNFIPVLCSGFPSIVARLMLQRRVITEFNNKLHQINASLDAILSRHDLDHTVRAFNARRRHAELSRRCLHLAARVQVLRNRGYALSGDEDELKQKLQQIDKTLNDPAQGSRLEELWSRLIVLRGYAEDLKDQINQAGITESDGLGEEIEAKAKKILEDYDKQLQHLKKQVEEAKKDFEEWEKQHN
In the case of B1, the “stoichiometry N” value is reported as 2.

Source: PMC4826903 (Science (New York, N.Y.), 2015)
